Assay results reported in the supplement of paper PMC9112550, “Optimization of the antimicrobial peptide Bac7 by deep mutational scanning” (BMC Biology, 2022).

System: Escherichia coli TOP10
Assay: shrunken log2 fold change of peptide-encoding DNA abundance (4.5 h post-induction vs induction); higher = less antimicrobial activity (less host growth inhibition)
Settings: time post-induction: 4.5 h; library: site-saturation at positions 5, 18, 19, 20
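Also: peptides expressed intracellularly from a pBAD plasmid library in pooled LB shake-flask culture, induced with 0.3% L-arabinose, DNA abundance read by NGS, three biological replicates, DESeq2 with apeglm shrinkage.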

| Sequence | shrunken log2 fold change |
| --- | --- |
| RRIRLRPPRLPRPRPRPNEFPRP | -0.168 |
| RRIRCRPPRLPRPRPRPEQRPRP | 0.23 |
| RRIRQRPPRLPRPRPRPSVIPRP | -0.656 |
| RRIRARPPRLPRPRPRPWCLPRP | -0.214 |
| RRIRSRPPRLPRPRPRPVPIPRP | 0.129 |
| RRIRERPPRLPRPRPRPQMKPRP | -0.568 |
| RRIRIRPPRLPRPRPRPGASPRP | 0.0546 |
| RRIRGRPPRLPRPRPRPVTDPRP | 0.394 |
| RRIRERPPRLPRPRPRPCRGPRP | 0.0764 |
| RRIRSRPPRLPRPRPRPNGAPRP | -0.299 |
| RRIRYRPPRLPRPRPRPCRQPRP | -0.442 |
| RRIRNRPPRLPRPRPRPAEEPRP | 0.119 |
| RRIRHRPPRLPRPRPRPMHGPRP | -0.00804 |
| RRIRIRPPRLPRPRPRPRVIPRP | -0.209 |
| RRIRARPPRLPRPRPRPCRPPRP | -0.153 |
| RRIRDRPPRLPRPRPRPQPGPRP | 0.237 |
| RRIRKRPPRLPRPRPRPEASPRP | 0.497 |
| RRIRVRPPRLPRPRPRPYECPRP | -1.34 |
| RRIRYRPPRLPRPRPRPQWYPRP | -0.118 |
| RRIRNRPPRLPRPRPRPCNPPRP | -0.378 |
| RRIRCRPPRLPRPRPRPQQPPRP | 0.345 |
| RRIRIRPPRLPRPRPRPWCMPRP | -0.693 |
| RRIRSRPPRLPRPRPRPMFLPRP | -0.595 |
| RRIRTRPPRLPRPRPRPMWYPRP | -0.602 |
| RRIRCRPPRLPRPRPRPSQWPRP | -0.337 |

| Sequence | shrunken log2 fold change |
| --- | --- |
| RRIRYRPPRLPRPRPRPNHNPRP | -1.23 |
| RRIRGRPPRLPRPRPRPFCRPRP | 0.326 |
| RRIRVRPPRLPRPRPRPFRGPRP | 0.0214 |
| RRIRPRPPRLPRPRPRPQKQPRP | -0.294 |
| RRIRSRPPRLPRPRPRPDMLPRP | 0.304 |
| RRIRMRPPRLPRPRPRPQYHPRP | -0.299 |
| RRIRPRPPRLPRPRPRPQCSPRP | -0.0986 |
| RRIRHRPPRLPRPRPRPKHDPRP | -0.363 |
| RRIRIRPPRLPRPRPRPWWFPRP | -0.0772 |
| RRIRNRPPRLPRPRPRPIHHPRP | -0.383 |
| RRIRCRPPRLPRPRPRPISGPRP | 0.0437 |
| RRIRLRPPRLPRPRPRPLWTPRP | -0.0559 |
| RRIRGRPPRLPRPRPRPIAIPRP | 0.216 |
| RRIRWRPPRLPRPRPRPRIKPRP | 0.0187 |
| RRIRPRPPRLPRPRPRPIEQPRP | 0.000804 |
| RRIRYRPPRLPRPRPRPKHMPRP | -0.991 |
| RRIRSRPPRLPRPRPRPHCCPRP | 0.022 |
| RRIRCRPPRLPRPRPRPAYMPRP | 0.119 |
| RRIRLRPPRLPRPRPRPDDNPRP | -0.138 |
| RRIRTRPPRLPRPRPRPCEQPRP | 0.0027 |
| RRIRPRPPRLPRPRPRPRHEPRP | 0.0886 |
| RRIRDRPPRLPRPRPRPHILPRP | 0.0348 |
| RRIRGRPPRLPRPRPRPCVPPRP | 0.307 |
| RRIRLRPPRLPRPRPRPPRLPRP | 0.46 |
| RRIRKRPPRLPRPRPRPNDSPRP | -0.042 |

| Sequence | shrunken log2 fold change |
| --- | --- |
| RRIRFRPPRLPRPRPRPWGDPRP | 0.00532 |
| RRIRSRPPRLPRPRPRPMVIPRP | -0.0364 |
| RRIRNRPPRLPRPRPRPRWSPRP | -0.054 |
| RRIRKRPPRLPRPRPRPMDQPRP | 0.0935 |
| RRIRHRPPRLPRPRPRPGANPRP | -0.0811 |
| RRIRRRPPRLPRPRPRPVPCPRP | 0.0337 |
| RRIRYRPPRLPRPRPRPATAPRP | 0.132 |
| RRIRFRPPRLPRPRPRPFDQPRP | -0.291 |
| RRIRNRPPRLPRPRPRPRSYPRP | -0.0727 |
| RRIRERPPRLPRPRPRPVTTPRP | -0.0245 |
| RRIRIRPPRLPRPRPRPVGTPRP | -0.126 |
| RRIRDRPPRLPRPRPRPFNKPRP | -1.45 |
| RRIRHRPPRLPRPRPRPNSKPRP | -0.737 |
| RRIRQRPPRLPRPRPRPQNPPRP | -0.0336 |
| RRIRVRPPRLPRPRPRPYDCPRP | -0.9 |
| RRIRKRPPRLPRPRPRPLGPPRP | 0.749 |
| RRIRDRPPRLPRPRPRPKFKPRP | -0.0689 |
| RRIRMRPPRLPRPRPRPPWSPRP | 0.596 |
| RRIRSRPPRLPRPRPRPVAQPRP | 0.101 |
| RRIRIRPPRLPRPRPRPCYVPRP | -0.411 |
| RRIRCRPPRLPRPRPRPFPRPRP | 0.134 |
| RRIRGRPPRLPRPRPRPWILPRP | 0.112 |
| RRIRLRPPRLPRPRPRPTPEPRP | 0.181 |
| RRIRIRPPRLPRPRPRPMSGPRP | 0.174 |
| RRIRKRPPRLPRPRPRPKYFPRP | -0.098 |

| Sequence | shrunken log2 fold change |
| --- | --- |
| RRIRYRPPRLPRPRPRPWCPPRP | -0.28 |
| RRIRSRPPRLPRPRPRPYFWPRP | -0.538 |
| RRIRTRPPRLPRPRPRPANAPRP | -0.0933 |
| RRIRQRPPRLPRPRPRPRKHPRP | 0.165 |
| RRIRIRPPRLPRPRPRPRLYPRP | 0.0739 |
| RRIRDRPPRLPRPRPRPSNKPRP | -0.325 |
| RRIRVRPPRLPRPRPRPDCSPRP | -0.0973 |
| RRIRKRPPRLPRPRPRPIWRPRP | 0.132 |
| RRIRYRPPRLPRPRPRPISPPRP | 0.0589 |
| RRIRKRPPRLPRPRPRPIIIPRP | -0.104 |
| RRIRVRPPRLPRPRPRPPHLPRP | -0.0283 |
| RRIRARPPRLPRPRPRPIVWPRP | 0.393 |
| RRIRIRPPRLPRPRPRPECGPRP | -0.118 |
| RRIRPRPPRLPRPRPRPHLCPRP | 0.0476 |
| RRIRIRPPRLPRPRPRPVERPRP | 0.0257 |
| RRIRHRPPRLPRPRPRPMAHPRP | 0.0179 |
| RRIRCRPPRLPRPRPRPWKNPRP | 0.0137 |
| RRIRWRPPRLPRPRPRPAQYPRP | 0.122 |
| RRIRERPPRLPRPRPRPVVYPRP | -0.945 |
| RRIRYRPPRLPRPRPRPSWVPRP | -0.597 |
| RRIRTRPPRLPRPRPRPMMKPRP | -0.11 |
| RRIRMRPPRLPRPRPRPDDRPRP | -0.012 |
| RRIRSRPPRLPRPRPRPNKNPRP | -0.384 |
| RRIRCRPPRLPRPRPRPRFRPRP | 0.201 |
| RRIRWRPPRLPRPRPRPMYCPRP | 0.0174 |

| Sequence | shrunken log2 fold change |
| --- | --- |
| RRIRQRPPRLPRPRPRPVHCPRP | -0.166 |
| RRIRTRPPRLPRPRPRPMRDPRP | 0.00292 |
| RRIRRRPPRLPRPRPRPSMPPRP | -0.0915 |
| RRIRMRPPRLPRPRPRPHMWPRP | 0.108 |
| RRIRIRPPRLPRPRPRPGMNPRP | -0.0956 |
| RRIRRRPPRLPRPRPRPRCMPRP | 0.1 |
| RRIRIRPPRLPRPRPRPPWEPRP | -0.21 |
| RRIRYRPPRLPRPRPRPVLSPRP | -0.311 |
| RRIRERPPRLPRPRPRPWLNPRP | -0.00136 |
| RRIRGRPPRLPRPRPRPEAWPRP | 1.91 |
| RRIRSRPPRLPRPRPRPAMWPRP | 0.0276 |
| RRIRFRPPRLPRPRPRPMVQPRP | -0.106 |
| RRIRLRPPRLPRPRPRPEIGPRP | 0.0748 |
| RRIRFRPPRLPRPRPRPIQIPRP | -0.234 |
| RRIRNRPPRLPRPRPRPPEAPRP | 0.0101 |
| RRIRTRPPRLPRPRPRPDPDPRP | -0.0398 |
| RRIRWRPPRLPRPRPRPLVVPRP | 0.173 |
| RRIRWRPPRLPRPRPRPPFEPRP | 0.765 |
| RRIRPRPPRLPRPRPRPKMWPRP | 0.299 |
| RRIRVRPPRLPRPRPRPRDPPRP | 0.617 |
| RRIRRRPPRLPRPRPRPNGMPRP | -0.0764 |
| RRIRNRPPRLPRPRPRPAKQPRP | -0.0201 |
| RRIRYRPPRLPRPRPRPMTQPRP | -0.0104 |
| RRIRARPPRLPRPRPRPFMPPRP | -0.149 |
| RRIRHRPPRLPRPRPRPNMKPRP | -0.855 |
